Results: paper PMC10721106, “Structure of the siphophage neck–Tail complex suggests that conserved tail tip proteins facilitate receptor binding and tail assembly” (PLOS Biology, 2023)

B4: coat protein gpE (natural protein, bacteriophage lambda, UniProt P03713 1-341, looked up)
chain: MSMYTTAQLLAANEQKFKFDPLFLRLFFRESYPFTTEKVYLSQIPGLVNMALYVSPIVSGEVIRSRGGSTSEFTPGYVKPKHEVNPQMTLRRLPDEDPQNLADPAYRRRRIIMQNMRDEELAIAQVEEMQAVSAVLKGKYTMTGEAFDPVEVDMGRSEENNITQSGGTEWSKRDKSTYDPTDDIEAYALNASGVVNIIVFDPKGWALFRSFKAVKEKLDTRRGSNSELETAVKDLGKAVSYKGMYGDVAIVVYSGQYVENGVKKNFLPDNTMVLGNTQARGLRTYGCIQDADAQREGINASARYPKNWVTTGDPAREFTMIQSAPLMLLADPDEFVSVQLA
notes: major capsid (coat) protein gpE of bacteriophage lambda, as it stands in the mature virion; The introduction gives 415 copies in the head (cited); also called major capsid protein gpE; head protein gpE; source: lambda W60 phage grown on E. coli MG1655; virions purified (PEG 8000 precipitation, CsCl gradient)
B8: tail terminal protein gpU (natural protein, bacteriophage lambda, UniProt P03732 1-131, looked up)
chain: MKHTELRAAVLDALEKHDTGATFFDGRPAVFDEADFPAVAVYLTGAEYTGEELDSDTWQAELHIEVFLPAQVPDSELDAWMESRIYPVMSDIPALSDLITSMVASGYDYRRDDDAGLWSSADLTYVITYEM
notes: tail terminal protein gpU of bacteriophage lambda; all 131 residues modelled; O-loop 25-37, E-loop 45-58; also called tail terminator; source: lambda W60 phage grown on E. coli MG1655; virions purified (PEG 8000 precipitation, CsCl gradient)

Legend:
[1] = molecular target: the molecule itself; assay: cryo-EM structure; purified lambda virions; local reconstruction of the tail tip complex with C3 symmetry (RELION), 3.44 Å
[2] = molecular target: T1, tail tube protein gpV (bacteriophage lambda), P03733; assay: cryo-EM structure; purified lambda virions; local reconstruction of the tail tube (RELION), 3.48 Å; conditions: remark: other sources report otherwise
T1 chain: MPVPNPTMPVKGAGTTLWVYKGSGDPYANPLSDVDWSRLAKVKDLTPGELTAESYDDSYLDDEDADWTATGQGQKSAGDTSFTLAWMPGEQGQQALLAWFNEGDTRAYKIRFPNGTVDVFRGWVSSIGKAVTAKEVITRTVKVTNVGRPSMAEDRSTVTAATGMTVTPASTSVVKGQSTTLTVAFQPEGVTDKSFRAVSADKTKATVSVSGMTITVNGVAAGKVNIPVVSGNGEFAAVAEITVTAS

[3] = molecular target: the molecule itself; assay: cryo-EM structure; purified lambda virions; local reconstruction of the gpB (portal) and gpW (adaptor) rings with 12-fold symmetry, 3.2 Å
[4] = molecular target: the molecule itself; assay: cryo-EM structure; purified lambda virions; icosahedral reconstruction of the head, 3.5 Å
[5] = molecular target: B8; assay: cryo-EM structure; purified lambda virions; local reconstruction of the neck: gpFII, gpU and 2 proximal gpV rings, 3.5 Å; conditions: both partners purified
[6] = molecular target: the molecule itself; assay: as above
[7] = molecular target: T2, cementing protein gpD (bacteriophage lambda), P03712; assay: cryo-EM structure; purified lambda virions; icosahedral reconstruction of the head, 3.5 Å; conditions: remark: other sources report otherwise
T2 chain: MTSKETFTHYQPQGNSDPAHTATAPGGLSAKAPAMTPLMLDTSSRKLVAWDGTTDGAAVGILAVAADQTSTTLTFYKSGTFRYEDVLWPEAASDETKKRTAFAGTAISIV

coat protein gpE = molecular target: B4; assay: as above; conditions: both partners purified

B1: central fiber protein gpJ (natural protein, bacteriophage lambda, UniProt P03749 1-1132, looked up)
chain: MGKGSSKGHTPREAKDNLKSTQLLSVIDAISEGPIEGPVDGLKSVLLNSTPVLDTEGNTNISGVTVVFRAGEQEQTPPEGFESSGSETVLGTEVKYDTPITRTITSANIDRLRFTFGVQALVETTSKGDRNPSEVRLLVQIQRNGGWVTEKDITIKGKTTSQYLASVVMGNLPPRPFNIRMRRMTPDSTTDQLQNKTLWSSYTEIIDVKQCYPNTALVGVQVDSEQFGSQQVSRNYHLRGRILQVPSNYNPQTRQYSGIWDGTFKPAYSNNMAWCLWDMLTHPRYGMGKRLGAADVDKWALYVIGQYCDQSVPDGFGGTEPRITCNAYLTTQRKAWDVLSDFCSAMRCMPVWNGQTLTFVQDRPSDKTWTYNRSNVVMPDDGAPFRYSFSALKDRHNAVEVNWIDPNNGWETATELVEDTQAIARYGRNVTKMDAFGCTSRGQAHRAGLWLIKTELLETQTVDFSVGAEGLRHVPGDVIEICDDDYAGISTGGRVLAVNSQTRTLTLDREITLPSSGTALISLVDGSGNPVSVEVQSVTDGVKVKVSRVPDGVAEYSVWELKLPTLRQRLFRCVSIRENDDGTYAITAVQHVPEKEAIVDNGAHFDGEQSGTVNGVTPPAVQHLTAEVTADSGEYQVLARWDTPKVVKGVSFLLRLTVTADDGSERLVSTARTTETTYRFTQLALGNYRLTVRAVNAWGQQGDPASVSFRIAAPAAPSRIELTPGYFQITATPHLAVYDPTVQFEFWFSEKQIADIRQVETSTRYLGTALYWIAASINIKPGHDYYFYIRSVNTVGKSAFVEAVGRASDDAEGYLDFFKGKITESHLGKELLEKVELTEDNASRLEEFSKEWKDASDKWNAMWAVKIEQTKDGKHYVAGIGLSMEDTEEGKLSQFLVAANRIAFIDPANGNETPMFVAQGNQIFMNDVFLKRLTAPTITSGGNPPAFSLTPDGKLTAKNADISGSVNANSGTLSNVTIAENCTINGTLRAEKIVGDIVKAASAAFPRQRESSVDWPSGTRTVTVTDDHPFDRQIVVLPLTFRGSKRTVSGRTTYSMCYLKVLMNGAVIYDGAANEAVQVFSRIVDMPAGRGNVILTFTLTSTRHSADIPPYTFASDVQVMVIKKQALGISVV
notes: central fiber protein gpJ of bacteriophage lambda in the virion; domains HDII, HDII-insertion (with FNIII-A, residues 72-215), HDIII, HDIV (with a β-sandwich, residues 483-569), linker, FNIII-1, FNIII-2, three-helix bundle; source: lambda W60 phage grown on E. coli MG1655; virions purified (PEG 8000 precipitation, CsCl gradient)
- stoichiometry N [1]: 3

B2: tail tube protein gpV, P03733 1-246 (natural protein)
chain: MPVPNPTMPVKGAGTTLWVYKGSGDPYANPLSDVDWSRLAKVKDLTPGELTAESYDDSYLDDEDADWTATGQGQKSAGDTSFTLAWMPGEQGQQALLAWFNEGDTRAYKIRFPNGTVDVFRGWVSSIGKAVTAKEVITRTVKVTNVGRPSMAEDRSTVTAATGMTVTPASTSVVKGQSTTLTVAFQPEGVTDKSFRAVSADKTKATVSVSGMTITVNGVAAGKVNIPVVSGNGEFAAVAEITVTAS
- stoichiometry N [2]: 6

B3: adaptor protein gpW (natural protein, bacteriophage lambda)
chain: MTRQEELAAARAALHDLMTGKRVATVQKDGRRVEFTATSVSDLKKYIAELEVQTGMTQRRRGPAGFYV
notes: adaptor protein gpW of bacteriophage lambda, 68-residue protein, residues 4-68 resolved; domains: β-hairpin 23-36, two-α-helix bundle 4-22 and 37-54, C-arm 55-68; also called neck protein gpW; source: lambda W60 phage grown on E. coli MG1655; virions purified (PEG 8000 precipitation, CsCl gradient); copies: 12
- stoichiometry N [3]: 12

Binder: B4
- binding result [4]: binds

B5: stopper protein gpFII (natural protein, bacteriophage lambda)
chain: MADFDNLFDAAIARADETIRGYMGTSATITSGEQSGAVIRGVFDDPENISYAGQGVRVEGSSPSLFVRTDEVRQLRRGDTLTIGEENFWVDRVSPDDGGSCHLWLGRGVPPAVNRRR
notes: stopper protein gpFII of bacteriophage lambda, 117-residue protein, residues 4-117 resolved; domains: N-terminal α-helix 4-24, β-sandwich 25-41 and 63-107, β-hairpin 46-62, C-terminal loop 108-117; also called neck protein gpFII; source: lambda W60 phage grown on E. coli MG1655; virions purified (PEG 8000 precipitation, CsCl gradient)
- binding result [5]: binds
- stoichiometry N [6]: 6

B6: cementing protein gpD (natural protein)
chain: MTSKETFTHYQPQGNSDPAHTATAPGGLSAKAPAMTPLMLDTSSRKLVAWDGTTDGAAVGILAVAADQTSTTLTFYKSGTFRYEDVLWPEAASDETKKRTAFAGTAISIV
notes: cementing (decoration) protein gpD of bacteriophage lambda, trimers on the capsid shell of the mature virion; also called head protein gpD; source: lambda W60 phage grown on E. coli MG1655; virions purified (PEG 8000 precipitation, CsCl gradient)
- stoichiometry N [7]: 3
- binding result (coat protein gpE): binds

B7: insertion protein gpI (natural protein, bacteriophage lambda, UniProt P03730 1-223, looked up)
chain: MAATHTLPLASPGMARICLYGDLQRFGRRIDLRVKTGAEAIRALATQLPAFRQKLSDGWYQVRIAGRDVSTSGLTAQLHETLPDGAVIHIVPRVAGAKSGGVFQIVLGAAAIAGSFFTAGATLAAWGAAIGAGGMTGILFSLGASMVLGGVAQMLAPKARTPRIQTTDNGKQNTYFSSLDNMVAQGNVLPVLYGEMRVGSRVVSQEISTADEGDGGQVVVIGR
notes: insertion protein gpI of bacteriophage lambda in the virion; source: lambda W60 phage grown on E. coli MG1655; virions purified (PEG 8000 precipitation, CsCl gradient)
- stoichiometry N [1]: 3

Binder: B8
- stoichiometry N [6]: 6

B9: portal protein gpB (natural protein, bacteriophage lambda, UniProt P03710 23-533, looked up)
chain: GYHGGGSGFGGQLRSWNPPSESVDAALLPNFTRGNARADDLVRNNGYAANAIQLHQDHIVGSFFRLSHRPSWRYLGIGEEEARAFSREVEAAWKEFAEDDCCCIDVERKRTFTMMIREGVAMHAFNGELFVQATWDTSSSRLFRTQFRMVSPKRISNPNNTGDSRNCRAGVQINDSGAALGYYVSEDGYPGWMPQKWTWIPRELPGGRASFIHVFEPVEDGQTRGANVFYSVMEQMKMLDTLQNTQLQSAIVKAMYAATIESELDTQSAMDFILGANSQEQRERLTGWIGEIAAYYAAAPVRLGGAKVPHLMPGDSLNLQTAQDTDNGYSVFEQSLLRYIAAGLGVSYEQLSRNYAQMSYSTARASANESWAYFMGRRKFVASRQASQMFLCWLEEAIVRRVVTLPSKARFSFQEARSAWGNCDWIGSGRMAIDGLKEVQEAVMLIEAGLSTYEKECAKRGDDYQEIFAQQVRETMERRAAGLKPPAWAAAAFESGLRQSTEEEKSDSRAA
notes: portal protein gpB of bacteriophage lambda in the mature virion; modelled without 23 N-terminal residues, 20 C-terminal residues and the loop 303-319; domains: wing 24-249 and 368-452, stem 250-279 and 343-367, clip 280-342, crown 453-511; source: lambda W60 phage grown on E. coli MG1655; virions purified (PEG 8000 precipitation, CsCl gradient); copies: 12
- stoichiometry N [3]: 12

B10: tape measure protein gpH (natural protein, bacteriophage lambda, UniProt P03736 1-853, looked up)
chain: MAEPVGDLVVDLSLDAARFDEQMARVRRHFSGTESDAKKTAAVVEQSLSRQALAAQKAGISVGQYKAAMRMLPAQFTDVATQLAGGQSPWLILLQQGGQVKDSFGGMIPMFRGLAGAITLPMVGATSLAVATGALAYAWYQGNSTLSDFNKTLVLSGNQAGLTADRMLVLSRAGQAAGLTFNQTSESLSALVKAGVSGEAQIASISQSVARFSSASGVEVDKVAEAFGKLTTDPTSGLTAMARQFHNVSAEQIAYVAQLQRSGDEAGALQAANEAATKGFDDQTRRLKENMGTLETWADRTARAFKSMWDAVLDIGRPDTAQEMLIKAEAAYKKADDIWNLRKDDYFVNDEARARYWDDREKARLALEAARKKAEQQTQQDKNAQQQSDTEASRLKYTEEAQKAYERLQTPLEKYTARQEELNKALKDGKILQADYNTLMAAAKKDYEATLKKPKQSSVKVSAGDRQEDSAHAALLTLQAELRTLEKHAGANEKISQQRRDLWKAESQFAVLEEAAQRRQLSAQEKSLLAHKDETLEYKRQLAALGDKVTYQERLNALAQQADKFAQQQRAKRAAIDAKSRGLTDRQAEREATEQRLKEQYGDNPLALNNVMSEQKKTWAAEDQLRGNWMAGLKSGWSEWEESATDSMSQVKSAATQTFDGIAQNMAAMLTGSEQNWRSFTRSVLSMMTEILLKQAMVGIVGSIGSAIGGAVGGGASASGGTAIQAAAAKFHFATGGFTGTGGKYEPAGIVHRGEFVFTKEATSRIGVGNLYRLMRGYATGGYVGTPGSMADSRSQASGTFEQNNHVVINNDGTNGQIGPAALKAVYDMARKGARDEIQTQMRDGGLFSGGGR
notes: tape measure protein gpH of bacteriophage lambda in the virion; only a C-terminal α-helix modelled (residues 818-842 in the results, 818-849 in the methods); source: lambda W60 phage grown on E. coli MG1655; virions purified (PEG 8000 precipitation, CsCl gradient)
- stoichiometry N [1]: 3

B11: distal tail protein gpM (natural protein, bacteriophage lambda, UniProt P03737 1-109, looked up)
chain: MKTFRWKVKPGMDVASVPSVRKVRFGDGYSQRAPAGLNANLKTYSVTLSVPREEATVLESFLEEHGGWKSFLWTPPYEWRQIKVTCAKWSSRVSMLRVEFSAEFEQVVN
notes: distal tail protein gpM of bacteriophage lambda; all 109 residues resolved; two conformers that differ in the E-loop; source: lambda W60 phage grown on E. coli MG1655; virions purified (PEG 8000 precipitation, CsCl gradient)
- stoichiometry N [1]: 6
